From US20200087394A1 come the findings set out here.

The target of the test is CD16 receptor on Jurkat-hCD16aF cells (human) (UniProt P08637). The test is described as follows: cell-based or functional assay.
CD16 receptor on Jurkat-hCD16aF cells (human), sequence (P08637 17-254): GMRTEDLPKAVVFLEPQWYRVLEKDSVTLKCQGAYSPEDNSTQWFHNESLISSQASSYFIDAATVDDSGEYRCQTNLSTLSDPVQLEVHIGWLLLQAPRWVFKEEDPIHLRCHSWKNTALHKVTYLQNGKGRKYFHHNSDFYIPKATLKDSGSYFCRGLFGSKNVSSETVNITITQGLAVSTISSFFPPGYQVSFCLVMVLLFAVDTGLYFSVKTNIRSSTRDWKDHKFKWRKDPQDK

“Anti-PDL1|atezolizumab|Fc-WT (CHOs) (from UniProt P01857 1-330) (antibody)” registered a quantity of antibody required to induce 1000 pg of IL-2 from Jurkat-hCD16aF cells with PD-L1 aAPC/CHO-K1 target cells (ng per 1000 pg of IL-2) of more than 1250.
“Anti-PDL1|durvalumab|Fc-WT (CHOs) (from UniProt P01857 1-330) (antibody)” showed a quantity of antibody required to induce 1000 pg of IL-2 from Jurkat-hCD16aF cells with PD-L1 aAPC/CHO-K1 target cells (ng per 1000 pg of IL-2) of more than 1250.
